Drawing on US20220332804A1 (CSL INNOVATION, published 2022), this text covers Fold diff for one molecule.

Common to all, as to test: SPR, KD relative to WT C2;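 note: biacore SPR at 37 °C, anti-C2 mAbs captured on anti-human IgG chips with alanine or serine point mutants of C2 as analyte, KD from 1:1 fit compared with wild-type C2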
(In general: SPR reads the build-up and loss of mass on a sensor chip optically.)

The target of one test is T1, human C2 W420A (human, UniProt P06681 21-752).
T1 sequence: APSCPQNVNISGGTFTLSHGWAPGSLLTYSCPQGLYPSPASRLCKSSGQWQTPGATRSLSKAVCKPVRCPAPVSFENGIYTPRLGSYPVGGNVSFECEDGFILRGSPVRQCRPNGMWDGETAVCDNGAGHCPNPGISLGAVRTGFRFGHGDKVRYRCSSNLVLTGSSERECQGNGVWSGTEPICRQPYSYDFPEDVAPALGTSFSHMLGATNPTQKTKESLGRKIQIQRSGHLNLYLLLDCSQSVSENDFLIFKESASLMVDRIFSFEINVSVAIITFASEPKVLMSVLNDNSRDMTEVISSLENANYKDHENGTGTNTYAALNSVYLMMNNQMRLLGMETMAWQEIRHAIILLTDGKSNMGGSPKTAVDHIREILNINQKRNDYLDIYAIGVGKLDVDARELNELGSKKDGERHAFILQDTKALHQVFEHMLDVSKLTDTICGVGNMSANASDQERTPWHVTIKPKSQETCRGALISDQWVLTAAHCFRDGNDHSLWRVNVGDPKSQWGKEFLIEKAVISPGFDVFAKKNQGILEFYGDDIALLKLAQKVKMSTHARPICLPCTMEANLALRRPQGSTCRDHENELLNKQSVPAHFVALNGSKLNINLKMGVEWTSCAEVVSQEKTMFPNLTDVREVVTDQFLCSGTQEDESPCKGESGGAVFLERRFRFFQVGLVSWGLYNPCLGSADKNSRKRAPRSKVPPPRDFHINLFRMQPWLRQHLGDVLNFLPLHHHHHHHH

The next test concerns the target T2, human C2 K430A (human, UniProt P06681 21-752).
T2 sequence: T1 sequence with A400W, K410A

In a further test the target is T3, human C2 T442A (human, UniProt P06681 21-752).
T3 sequence: T1 sequence with A400W, T422A

Another test addresses T4, human C2 F270A (human, UniProt P06681 21-752).
T4 sequence: T1 sequence with F250A, A400W

Changes are numbered by the printed parent chain.

B1: RF16-242 (antibody, human IgG4 S228P, lambda, V domains shown)
VH: EVQLLQSGAEVKKPGESLKISCKGSGYSFTSYWIGWVRQMPGKGLEWMGIIYPGDSDTRYSPSFQGQVTISADKSISTAYLQWSSLKASDTAMYYCARRGHYGDYFDYWGQGTLVTVSS
VL: SYELTQPPSVSVSPGQTARITCSGDALPKKYAYWYHQKSGQAPVLVIYEDRRRPSEIPERFSGSSSGTMATLTITGAQVEDEGVYFCYSRDRAGNQRVFGGGTQLTVLG
notes: pH-dependent anti-C2 antibody from a phage display library
For B1, the Fold diff with human C2 W420A is 2 fold; in the test with human C2 K430A, 13 fold; in the test with human C2 T442A it was 3 fold; with human C2 F270A, 15 fold.
